The source of these data is article PMC7082059 (PLoS Pathogens, 2020).

*: point of attachment. Biotin = O=C1N[C@H]2[C@H](CS[C@H]2CCCCC(=O)*)N1; linker = not defined here

Holding throughout (conditions): both partners purified
The target of assay [1] is T1, Ac-NPNANPNANPNA-NH2 [(NPNA)3] (Plasmodium falciparum 3D7).
T1 construct: three NPNA repeats of the central NANP repeat region of the Plasmodium falciparum circumsporozoite protein (PfCSP); numbers count on: the peptide (N1-A12); also called (NPNA)3 peptide; source: synthetic peptide, bought: Innopep Inc., 98% purity
T1 chain: Ac-NPNANPNANPNA-NH2
Briefly: crystal structure; Fab at 11 mg/mL in TBS with a 5:1 molar ratio of peptide to Fab, crystals grown at 293 K.

The target of assay [2] is T2, Biotin-linker-NPNANPNANPNANPNA-NH2 (NPNA)4 (Plasmodium falciparum, reading uncertain; also: biotin-linker structure not given here, printed as Biotin-linker-NPNANPNANPNANPNA-NH2 (NPNA)4).
T2 construct: four NPNA repeats of the central NANP repeat region of the Plasmodium falciparum circumsporozoite protein (PfCSP); The linker between biotin and peptide is not described; also called NANP peptide; called (NPNA)3 in the results on BLI; source: synthetic peptide, bought: Innopep Inc
T2 chain: {Biotin-linker}-NPNANPNANPNANPNA-NH2
Briefly: BLI; biotinylated peptide captured on streptavidin sensors, dipped into serial dilutions of Fab in Kinetics buffer (Dulbecco's PBS, 0.002% Tween20, 0.01% BSA), 25 °C, Octet Red.

The target of assay [3] is T3, Biotin-linker-NPNANPNANPNANPNA-NH2 (NPNA)4 (Plasmodium falciparum, reading uncertain; also: biotin-linker structure not given here, printed as Biotin-linker-NPNANPNANPNANPNA-NH2 (NPNA)4).
T3 construct: four NPNA repeats of the central repeat region of Plasmodium falciparum circumsporozoite protein (PfCSP); also called NANP peptide; source: synthetic peptide, ordered from Innopep Inc
T3 chain: {Biotin-linker}-NPNANPNANPNANPNA-NH2
As to the kind of experiment: BLI; Octet Red; biotinylated peptide (10 ug/mL) captured on streptavidin sensors, dipped into serial dilutions of Fab in Kinetics buffer (Dulbecco's PBS, 0.002% Tween20, 0.01% BSA); 25 C; Fab667-Junc fitted to a biphasic binding model; errors are fitting errors.

For assay [4], the target named is T4, Biotin-linker-KQPADGNPDPNANPNV-NH2 (Junc) (Plasmodium falciparum, reading uncertain; also: biotin-linker structure not given here, printed as Biotin-linker-KQPADGNPDPNANPNV-NH2 (Junc)).
T4 construct: junctional region of the Plasmodium falciparum circumsporozoite protein (PfCSP), end of the N-terminal domain and first repeats; numbers count on: the peptide (K1-V16); The linker between biotin and peptide is not described; also called junctional peptide; source: synthetic peptide, bought: Innopep Inc
T4 chain: {Biotin-linker}-KQPADGNPDPNANPNV-NH2
Briefly: BLI; biotinylated peptide captured on streptavidin sensors, dipped into serial dilutions of Fab in Kinetics buffer (Dulbecco's PBS, 0.002% Tween20, 0.01% BSA), 25 °C, Octet Red.

The target in assay [5] is T5, Biotin-linker-KQPADGNPDPNANPNV-NH2 (Junc) (Plasmodium falciparum, reading uncertain; also: biotin-linker structure not given here, printed as Biotin-linker-KQPADGNPDPNANPNV-NH2 (Junc)).
T5 construct: junctional region between the N-terminal domain and the central repeats of Plasmodium falciparum circumsporozoite protein (PfCSP); also called junctional peptide; source: synthetic peptide, ordered from Innopep Inc
T5 chain: {Biotin-linker}-KQPADGNPDPNANPNV-NH2
As to the kind of experiment: BLI; Octet Red; biotinylated peptide (10 ug/mL) captured on streptavidin sensors, dipped into serial dilutions of Fab in Kinetics buffer (Dulbecco's PBS, 0.002% Tween20, 0.01% BSA); 25 C; Fab667-Junc fitted to a biphasic binding model; errors are fitting errors.

Assay [6] addresses T6, Ac-KQPADGNPDPNANP-NH2 (Junc) (Plasmodium falciparum 3D7).
T6 construct: junctional region of the Plasmodium falciparum circumsporozoite protein (PfCSP); numbers count on: the peptide (K1-P14); also called junctional peptide for crystallography; source: synthetic peptide, bought: Innopep Inc., 98% purity
T6 chain: Ac-KQPADGNPDPNANP-NH2
As to the kind of experiment: crystal structure; Fab at 11 mg/mL in TBS with a 5:1 molar ratio of peptide to Fab, crystals grown at 293 K.

B1: Fab667 (Fab, V domains shown)
VH: QVQLVQSGAEVKKPGASVKVSCRASGYTFTNYAMHWVRQAPGQRLEWMGWINAGNGYTKYSQKFQDRVTITRDTSATTAYMELSSLRSEDTAMYYCARDSFYDILSGPVYHYYGMDVWGQGTTVTVSS
VL: QSALTQPDSVSGSPGQSITISCTGTSNDVGIYNHVSWYQQHPGKAPKLMIYDVNKRPSGISNRFSGSKSGDTASLTISGLQAEDEADYYCCSYAGSSAWVFGGGTKLTVL
notes: Fab heavy chain; germline VH1-3*01; CDR H3 of 19 residues; lambda light chain; germline Vλ2-23*02; source: purified
As for B1, the binding result in assay [1] is “binds”. In assay [2], binding was put at a Kd of 170 nM.

B2: Fab667 (Fab, V domains shown)
VH: B1 VH
VL: B1 VL
notes: Germline genes VH1-3*01 and Vlambda2-23*02; CDR H3 of 19 residues; also called mAb667 (as IgG)
In assay [3], B2 displayed a dissociation constant (Kd) of 176 nM, a koff of 0.00429 s⁻¹ and a kon of 24400 M⁻¹ s⁻¹.

B3: Fab317 (Fab, V domains shown)
VH: QMQLVESGGGVVQPGRSLRLSCTASGFTFSTYAMHWVRQSPGQGLQWVAVISYHSTNKYYEDSVRGRFTISRDNSKNTLYLQMNSLRAEDTAVYYCARDGYSSSFFDFWGQGTLVTVSS
VL: DIQMTQSPSTLSASVGDRVAITCRASQSISRWLAWYQQQPGKAPKLLMSGASVLESGVPSRFSGSGSGTEFTLTISSLQPDDFATYYCQHYNSYFVTFGQGTKVEIK
notes: Fab heavy chain; in the cited structure of Fab317, PDB 6AXL; Fab light chain; NANP-only antibody used for comparison; source: purified
For the molecule B3, the binding result in assay [4] is “no binding (tested: 8000 nM)”. Besides, in assay [2], the affinity, expressed as Kd, was 25 nM.

B4: Fab317 (Fab, V domains shown)
VH: B3 VH
VL: B3 VL
notes: heavy chain of Fab317 in the cited crystal structure PDB 6AXL; light chain of Fab317 in the cited crystal structure PDB 6AXL; also called mAb317 (as IgG)
As for B4, the binding result in assay [5] was “no binding (tested: 8000 nM)”. In assay [3], this molecule yielded a dissociation rate constant (koff) of 0.00146 s⁻¹ and a kon of 58400 M⁻¹ s⁻¹.

B5: Fab668 (Fab, V domains shown)
VH: QVQLVQSGAEVKKPGASVKVSCKASGFTFTDYAMHWVRQAPGQRLEWMGWINAGNGYTKYSQKFQDRLTITRDTFASTVYMELSSLRSEDTTVYYCARDGFCPSNTCSGYYGMDVWGQGTTVTVSS
VL: QSALTQPASVSGSPGQSITISCTGTSSDVGSYNYVSWYQQHPGKAPKLMIYDVNTRPSGVSIRFSASKSGNTASLTVSGLQAEDEAVYYCSSYAGSSTWVFGGGTKLTVL
notes: Fab heavy chain; germline VH1-3*01; CDR H3 of 17 residues with a disulfide between Cys98 and Cys100C; lambda light chain; germline Vλ2-23*02; source: purified
Take B5: the binding result in assay [6] is recorded as “binds”. The Kd was found to be 206 nM in assay [4] and 56 nM in assay [2].

B6: Fab668 (Fab, V domains shown)
VH: B5 VH
VL: B5 VL
notes: Germline genes VH1-3*01 and Vlambda2-23*02; CDR H3 of 17 residues; also called mAb668 (as IgG)
In the case of B6, in assay [5], the dissociation rate constant (koff) was determined as 0.00424 s⁻¹ and the kon came to 20600 M⁻¹ s⁻¹. Besides, in assay [3], the Kd is 55.6 nM, the koff stood at 0.00179 s⁻¹ and the on-rate constant (kon) worked out at 32200 M⁻¹ s⁻¹.
